The source of these data is patent publication US10253086B2, “CD20 therapies, CD22 therapies, and combination therapies with a CD19 chimeric antigen receptor (CAR)-expressing cell” (Novartis AG, priority 2015, dated 2019).

For test [1], the system named is luciferase-expressing mantle cell line (RL luc). Briefly: RL luc mantle cell lymphoma xenograft, CART19 with exogenous IL-7. It counts as in vivo, NSG mice. As to the method:
Next, the effect of exogenous IL-7 treatment on anti-tumor activity of CART19 cells was assessed in a lymphoma animal model. NSG mice were engrafted with a luciferase-expressing mantle cell line (RL luc) on Day 0 (D0), followed by treatment of CART19 cells on Day 6. The NSG mice were divided into groups, where one group received no CART19 cells, a second group received 0.5×10^6 CART19 cells, a third group received 1×10^6 CART19 cells, and a fourth group received 2×10^6 CART19 cells. Tumor size was monitored by measuring the mean bioluminescence of the engrafted tumors over more than 80 days. […] When comparing the tumor burden of mice that received IL-7 treatment to control, before and after IL-7 treatment, tumor reduction in tumor burden was only seen in the mice that had received IL-7 treatment (FIG. 10C).
T cell dynamics following IL-7 treatment in the lymphoma animal model was also examined. Human CART19 cells were not detectable in the blood prior to IL-7 treatment. […] The extent of T cell expansion observed in mice receiving the IL-7 also correlated with tumor response. The mouse with the highest number of T cells detected in the blood at peak expansion during IL-7 treatment (mouse #3815) had the most robust reduction in tumor burden (see FIG. 10B). Moreover, the time of peak expansion correlated with the T cell dose injected as baseline. The number/level CD3-expressing cells in the blood were also measured before and after IL-7 treatment.

For test [2], the target named is recombinant human CD22-Fc (Homo sapiens, UniProt P20273). Kind of test: Surface expression of CD22 CAR in primary human T-cells (Protein-L, rhCD22-Fc). The format is cell-based. Particulars: day 10, flow cytometry. As to the method: Primary human T-cells were activated with anti-CD3/antiCD28 stimulatory beads on day 0, followed by lentiviral transduction of specified CAR constructs on day 1. Cells were expanded in vitro until day, 10 at which point they were analyzed by flow cytometry for surface expression of CAR. Two different approaches were utilized to determine surface expression of CAR: Protein-L-biotin followed by streptavidin-PE, and recombinant human CD22-Fc followed by anti-Fc-alexafluor 488. […] CD22 CAR m971 served as a positive control for binding both Protein-L and hrCD22-Fc, and Isotype CAR with no specificity (anti-gH) served as a positive control for Protein-L. T cells expressing no CAR were used as a negative control.

For test [3], the system named is Raji, SEM, K562-hCD22, Daudi, and Nalm6. Kind of test: Primary T-cell tumor target killing assay. The format is cell-based, human. Particulars: for target cell killing: CD22 expressing luciferase target cell lines. An excerpt: Primary T-cells activated and transduced as described above were mixed with target cell lines stably expressing luciferase at the ratios indicated (FIG. 20A-20F). […] Untransduced T-cells (UTD) lacked the ability to kill target cell lines.

The subject of another test is CD22. Briefly: NFAT assay of CD22 CAR in JNL cells on antigen-coated plates. The format is cell-based, human. The protocol: Several CD22 CAR constructs were functionally validated in an NFAT assay. Briefly the experiments were performed as follows. A lentiviral vector (pELPS) carrying a nucleic acid, encoding a CD22 CAR with a CD22-binding scFv domain was introduced by electroporation into a Jurkat T cell line modified to express luciferase under the control of an NFAT response element (JNL). The cells were cultured and allowed to express the CAR construct. The electroporated cells were applied to a plate coated with the target antigen (CD22). Detection of luciferase signal in the coated plate was indicative of binding activity of the CD22 CAR to its antigen, leading to activation of the T cells and expression of luciferase.
The results also indicate that the different scFvs compete with m971 to different extents.
FIG. 72 is a graph showing the activation (in RLU) of several CD22 CAR-expressing JNL cells including CD22-57, CD22-58, CD22-59, CD22-60, CD22-61, CD22-62, and CD22-63, the scFv sequences of which are provided herein. Three different target proteins (CD22-FL-Fc, CD22-D567-Fc, and CD22-D67) were used to coat the tissue culture plates; a negative control (Fc) was also included. A mesothelin binding CAR (Meso-G07) was used as a negative control. CD22-12 and CD22-53 were used as positive controls. […] Domain mapping was performed on CD22 binding domains. Three different forms of antigens were used: CD22 full-length with all 7 external domains, Domain567 (in which domains 1-4 were deleted) and Domain67 (in which domains 1-5 were deleted). While not wishing to be bound by theory, it appears that the binding of various CD22 clones maps to the epitopes illustrated in FIG. 75.
Two scFvs, named CD22-64 and CD22-65, were produced by affinity maturation of hCD22-12. CAR constructs containing these scFvs were tested for activity in an NFAT assay as described above. […] The bars in the figure represent, from left to right, CD22 full length-Fc; CD22 D567-Fc; and an Fc only negative control used for coating of the plates.

A further test has as its system Raji-Luc and Daudi-Luc. Kind of test: IFN-gamma and IL-2 secretion by CD22 CAR primary T cells. It counts as cell-based, human. To be noted: E:T 10 to 1, 20-hr co-culture. The protocol:
CD22 CAR constructs were also tested for the ability to promote secretion of IFN-gamma and IL-2. Briefly, transduced primary T cells from healthy donors expressing the different CD22 CARs were co-cultured with the CD22-positive target cells Raji-Luc and Daudi-Luc as well as the negative control K562-Luc. T cells and target cell were cultured in an effector-to-target cell ratio (E:T) of 10 to 1. Supernatants were harvested after 20-hr co-culture. […] Similar results were observed when Nalm6-Luc, Pfeiffer-Luc, and K562-CD22-Luc, and SEM-Luc cells were tested (data not shown). Minimal IFN-gamma secretion was observed when the K562-Luc negative control cell line was tested (bottom panel).

The next test concerns CD19 and CD22. Briefly: NFAT assay of bispecific CAR19/CAR22 constructs. It counts as cell-based. As to the method:
The bispecific CD19-CD22 and CD22-CD19 constructs described above were tested in an NFAT assay, as described in the Examples below. As controls, an anti-CD19 alone CAR and an anti-CD22 alone CAR were used.

Another test has as its system cynomolgus CD123. Briefly: Cross-reactivity of anti-CD123 clones with cynomolgus CD123. It counts as binding. An excerpt:
Their activity was compared against mouse clones 1172 and 1176, comprising the VH and VL domains in a light-to-heavy orientation with a CD8 hinge domain, CD8 transmembrane domain, and 41BB-costimulatory domain. […] 1172 is not.

Where a chain is given by its changes, count along the chain named.

B1: IL-7: exogenous recombinant human IL-7 (protein, UniProt P13232 26-177, looked up)
Interleukin-7: DCDIEGKDGKQYESVLMVSIDQLLDSMKEIGSNCLNNEFNFFKRHICDANKEGMFLFRAARKLRQFLKMNSTGDFDLHLLKVSEGTTILLNCTGQVKGRKPAALGEAQPTKSLEENKSLKEQKKLNDLCFLKRLLQEIKTCWNKILMGTKEH
Take B1: in test [1] (IL-7 200 ng/mouse i.p. three times weekly from Day 85, mice with suboptimal CART19 response), the “reduction in tumor burden” value is recorded as 1-3 log. Also, the “CD3-expressing cells in the blood” value in test [1] (after IL-7 treatment vs control mice) was “significant increase in CD3+ cells”. In addition, in test [1] (upon IL-7 treatment), the “numbers of T cells in blood” value is recorded as “rapid, but variable increase in the numbers of T cells”.

B2: CD22-12: human CD22 CAR, parent of CD22-64 and CD22-65 (protein)
scFv: EVQLQQSGPGLVKPSQTLSLTCAISGDSVLSNSDTWNWIRQSPSRGLEWLGRTYHRSTWYDDYASSVRGRVSINVDTSKNQYSLQLNAVTPEDTGVYYCARDRLQDGNSWSDAFDVWGQGTMVTVSSGGGGSGGGGSGGGGSQSALTQPASASGSPGQSVTISCTGTSSDVGGYNYVSWYQQHPGKAPKLMIYDVSNRPSGVSNRFSGSKSGNTASLTISGLQAEDEADYYCSSYTSSSTLYVFGTGTQLTVL
On to B2, for which the “surface expression of CAR” value in test [2] is “positive surface expression”. Moreover, in test [3], the “activity in cell killing and cytokine secretion assays (Example 9)” value is listed as “activity comparable to m971”; the target cell killing result was “dose-dependent target cell killing”. Further, in the test on CD22, the “activity (see Example 25)” value is reported as “found to have activity”. Moreover, the “antigen binding / activation (RLU) vs m971” value in the test on CD22 (with and without m971 scFv competitor) is listed as “bind the antigen approximately as well as the m971 positive control”. The IFN-gamma secretion entry in the test on Raji-Luc and Daudi-Luc is listed as “induced IFN-gamma secretion”.

B3: CD22-CD19: bispecific scFv tandem fusion CAR, hCD22-2 and humanized anti-CD19 (104876) (protein)
scFv: EVQLQQSGPGLVKPSQTLSLTCAISGDSVSSNSAAWNWIRQSPSRGLEWLGRTYYRSKWYNDYAVSVKSRITINPDTSKNQFSLQLNSVTPEDTAVYYCARDLGWIAVAGTFDYWGQGTLVTVSSGGGGSGGGGSGGGGSQSALTQPASVSGSPGQSITISCTGTSSDVGGYNYVSWYQQHPGKAPKLMIYDVSKRPSGVSNRFSGSKSGNTASLTISGLQAEDEADYYCSSYTSSSLNHVFGTGTKVTVLTGGGGSGGGGSGGGGSGGGGSEIVMTQSPATLSLSPGERATLSCRASQDISKYLNWYQQKPGQAPRLLIYHTSRLHSGIPARFSGSGSGTDYTLTISSLQPEDFAVYFCQQGNTLPYTFGQGTKLEIKGGGGSGGGGSGGGGSQVQLQESGPGLVKPSETLSLTCTVSGVSLPDYGVSWIRQPPGKGLEWIGVIWGSETTYYQSSLKSRVTISKDNSKNQVSLKLSSVTAADTAVYYCAKHYYYGGSYAMDYWGQGTLVTVSS
Regarding B3, the “activity in NFAT assay” value with CD19 and CD22 is recorded as “active against their targets”.

B4: CD19-CD22: bispecific scFv tandem fusion CAR, humanized anti-CD19 (104876) and hCD22-2 (protein)
scFv: EIVMTQSPATLSLSPGERATLSCRASQDISKYLNWYQQKPGQAPRLLIYHTSRLHSGIPARFSGSGSGTDYTLTISSLQPEDFAVYFCQQGNTLPYTFGQGTKLEIKGGGGSGGGGSGGGGSQVQLQESGPGLVKPSETLSLTCTVSGVSLPDYGVSWIRQPPGKGLEWIGVIWGSETTYYQSSLKSRVTISKDNSKNQVSLKLSSVTAADTAVYYCAKHYYYGGSYAMDYWGQGTLVTVSSGGGGSGGGGSGGGGSGGGGSEVQLQQSGPGLVKPSQTLSLTCAISGDSVSSNSAAWNWIRQSPSRGLEWLGRTYYRSKWYNDYAVSVKSRITINPDTSKNQFSLQLNSVTPEDTAVYYCARDLGWIAVAGTFDYWGQGTLVTVSSGGGGSGGGGSGGGGSQSALTQPASVSGSPGQSITISCTGTSSDVGGYNYVSWYQQHPGKAPKLMIYDVSKRPSGVSNRFSGSKSGNTASLTISGLQAEDEADYYCSSYTSSSLNHVFGTGTKVTVLT
Regarding B4, in the test on CD19 and CD22, the “activity in NFAT assay” value was “active against their targets”.

B5: m971-HL: CD22 (m971-derived) CAR construct that served as positive control (antibody, V domains shown)
VH: QVQLQQSGPGLVKPSQTLSLTCAISGDSVSSNSAAWNWIRQSPSRGLEWLGRTYYRSKWYNDYAVSVKSRITINPDTSKNQFSLQLNSVTPEDTAVYYCAREVTGDLEDAFDIWGQGTMVTV
VL: DIQMTQSPSSLSASVGDRVTITCRASQTIWSYLNWYQQRPGKAPNLLIYAASSLQSGVPSRFSGRGSGTDFTLTISSLQAEDFATYYCQQSYSIPQTFGQGTKLEIK
As for B5, in test [3], the target cell killing entry is given as “dose-dependent target cell killing”. For the same molecule, the IFN-gamma secretion entry with Raji-Luc and Daudi-Luc is “induced IFN-gamma secretion”.

B6: NVS 3: human anti-human CD123 clone expressing CAR123-3 (antibody, V domains shown)
VH: QVQLVQSGAEVKKPGASVKVSCKASGYIFTGYYIHWVRQAPGQGLEWMGWINPNSGGTNYAQKFQGRVTMTRDTSISTAYMELSGLRSDDPAVYYCARDMNILATVPFDIWGQGTLVTVSS
VL: DIQLTQSPSSLSASVGDRVTITCRASQSISSYLNWYQQKPGKAPKLLIYAASSLQSGVPSRFSGSGSGTDFTLTVNSLQPEDFATYYCQQGDSVPLTFGGGTKVEIK
In the case of B6, the “cross-reactivity against cynomolgus CD123” value in the test on cynomolgus CD123 is “cross-reactive against cynomolgus CD123”.

B7: NVS 4: human anti-human CD123 clone expressing CAR123-4 (antibody, V domains shown)
VH: QVQLQQSGAEVKKSGASVKVSCKASGYTFTDYYMHWLRQAPGQGLEWMGWINPNSGDTNYAQKFQGRVTLTRDTSISTVYMELSRLRSDDTAVYYCARDMNILATVPFDIWGQGTMVTVSS
VL: B6 VL with L4M, V75I, N76S
With B7, the “cross-reactivity against cynomolgus CD123” value with cynomolgus CD123 is recorded as “cross-reactive against cynomolgus CD123”.
